Measurements: paper PMC5428041, “Dynamic equilibrium on DNA defines transcriptional regulation of a multidrug binding transcriptional repressor, LmrR”

Molecular target: T1, LmrR (Lactococcus lactis, UniProt A2RI36 1-116)
T1 sequence: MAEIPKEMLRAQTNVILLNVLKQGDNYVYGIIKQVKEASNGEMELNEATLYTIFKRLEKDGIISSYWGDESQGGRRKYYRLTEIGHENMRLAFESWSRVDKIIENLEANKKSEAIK
Assay: ITC; apo; 2 LmrR dimers per DNA; 10 mM NaPi pH 6.8, 100 mM NaCl, 25 C (ITC; same buffer for NMR); 5% DMSO in riboflavin titrations
Settings: protein: recombinant; tags: C-terminal His6; chain copies: 4

B1: lmrCD operator 33 bp (dsDNA)
DNA 1: CAATTTAATGTAAAGTAGTTTACATTATTTAAC
DNA 2: GTTAAATAATGTAAACTACTTTACATTAAATTG
For B1, which Kd is on record?
Its Kd is 64 ± 22 nM.
